kcat data for 1 protein are collected here from article PMC3623455.

What is called kcat is the maximal rate divided by the concentration of active sites.

Substrate in data set [1]: O=C(CO)[C@H](O)[C@@H](O)CO
Kind of data set: purified protein. The note with it: 50 mM Tris-HCl pH 7.0, 0.5 mM NADPH, sugar reduction.

Substrate in data set [2]: OC[C@@H](O)[C@H](O)[C@@H](O)CO
Kind of data set: purified protein. The note with it: 100 mM Tris-HCl pH 8.0, 1 mM NADP+, polyol oxidation.

B1: LXR3 (Trichoderma reesei QM6a) (protein)
chain: KNGAFPHDNAAVPNVERVLPLFSLKGRTAIVSGAGAGIGLAVAQAFAEAGANVAIWYNSNKQAVTSAEDIAKTYGVKCKAYQVNVTSAEAVDKAITEIIKEFNGRLDVFVANSGITWTEGAFIDGSVESARNVMSVNVDGVMWCAKSAGAHFRRQKEEGTTIDGKPLDNFIAGSFIATASMSGSIVNVPQLQAVYNSSKAAVIHFCKSLAVEWTGFARVNTVSPGYIITEISNFVPPETKTLWKDKIVMGREGRVGELKGAYLYLASDASSYTTGLDMIVDGGYSLP
For the protein B1, the values for the catalytic constant (kcat) in data set [1] and in data set [2] were 11.4 s⁻¹ and 1 s⁻¹, respectively.
